In patent publication US20260176373A1 (BRIGHT BIOLOGICS, published 2026):
Values belong to the binder of their own block, whether it stands above or below them.

Tests used:
[1] = biological target: T1, human HER2 (human epidermal growth factor receptor 2) (human, UniProt P04626 23-1255); assay: cell-based or functional assay
[2] = biological target: T1, human HER2 (human epidermal growth …); assay: cell-based or functional assay; remark: listed apart in the source
[3] = biological target: T2, human HER2-Domain II-his protein (human, UniProt P04626 196-319); assay: ELISA, plate coated with human HER2-Domain II-his
T2 construct: also called HER2 domain II fragment (Ser196-Asn319); not shown: his tag
Description: (§1) X axis is values of antibody concentration in nanomolar. Y axis is values of OD at 450 nm.
(§2) Binding of anti-HER2 VHH-Fc clones to different domains of human HER2 ECD was determined by ELISA binding assays using his-tagged HER2 domain fragments. Human HER2 domain IV fragment (Pro489-Cys630) was purchased from Sinobiological, domain II+III+IV fragment (Ser196-Cys630) & domain II fragment (Ser196-Asn319) were made.

[4] = biological target: T3, human HER2-Domain IV-his protein (human, UniProt P04626 489-630); assay: ELISA, plate coated with human HER2-Domain IV-his
T3 construct: also called HER2 domain IV fragment (Pro489-Cys630); not shown: his tag
Description: as §1, §2

[5] = biological target: T1, human HER2 (human epidermal growth …); assay: flow cytometry whole cell binding, CHO-h-HER2 stable cells
Description: (§3) Binding of bivalent anti-HER2 VHH-Fc clones to human HER2 stably transfected CHO cells (CHO-h-HER2 stable cells) was determined by flow cytometry whole cell binding (WCB) assays. Briefly, antibodies were incubated at different concentrations with CHO-h-HER2 stable cells (0.2×10⁶/ml) in 100 μl/well in 96-well plates in FACS buffer (PBS with 1.0% FBS) for 30 min. After washing, Alexa Fluor 488 conjugated anti-human IgG Fc secondary antibody (Alexa Fluor® 488 AffiniPure Goat Anti-Human IgG, Fcγ fragment specific, Jackson labs, 1:750 dilution) was added, and incubated for 30 min. After washing, Median Fluorescence Intensity (MFI) was measured using CytoFlex (Beckman Coulter) by gating live cell population with FITC channel. Whole cell binding of VHH-Fc clones to endogenously expressed HER2 in human cancer cells was also determined using N87 (Stomach cancer cell line) and SKBR3 (Breast cancer cell line) cells, both of which are cancer cells with high HER2 expressions.

[6] = biological target: T1, human HER2 (human epidermal growth …); assay: flow cytometry whole cell binding, N87 cells (endogenous HER2)
Description: as §3

[7] = biological target: T1, human HER2 (human epidermal growth …); assay: cell-based or functional assay; remark: listed apart in the source
[8] = biological target: T1, human HER2 (human epidermal growth …); assay: flow cytometry whole cell binding, SKBR3 cells
[9] = biological target: T1, human HER2 (human epidermal growth …); assay: flow cytometry whole cell binding, HCC202 cells
[10] = biological target: T1, human HER2 (human epidermal growth …); assay: flow cytometry whole cell binding, CHO-h-HER2 stable cells; remark: listed apart in the source
[11] = biological target: T4, human TROP2 (Trophoblast cell-surface antigen 2) (human, UniProt P09758 27-323); assay: flow cytometry whole cell binding, SKBR3
T4 chain: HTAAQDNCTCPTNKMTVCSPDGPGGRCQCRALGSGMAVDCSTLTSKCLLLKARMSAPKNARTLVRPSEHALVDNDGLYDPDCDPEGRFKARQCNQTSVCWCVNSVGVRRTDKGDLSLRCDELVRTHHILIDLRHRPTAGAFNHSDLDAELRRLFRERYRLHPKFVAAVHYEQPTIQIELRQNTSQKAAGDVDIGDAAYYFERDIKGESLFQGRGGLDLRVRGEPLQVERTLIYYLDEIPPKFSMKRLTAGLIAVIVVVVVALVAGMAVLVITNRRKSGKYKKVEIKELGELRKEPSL

[12] = biological target: T5, human TROP2 (Trophoblast cell-surface antigen 2) (human, UniProt P09758 27-323); assay: flow cytometry whole cell binding, h-TROP2 stably transfected CHO cells
T5 construct: whole, on cells; also called TACSTD2; h-TROP2
T5 sequence (looked up): T4 chain
Description: Binding of bivalent anti-TROP2 VHH-Fc clones to human TROP2 in human TROP2 stably transfected CHO cells (CHO-h-TROP2 stable cells) were determined by flow cytometry whole cell binding (WCB) assays. Briefly, antibodies were incubated at different concentrations with CHO-h-TROP2 stable cells (0.2×10⁶/ml) in 96-well plates (100 μl/well) in FACS buffer for 30 min. After washing, Alexa Fluor 488 conjugated anti-human IgG Fc secondary antibody was added, and incubated for 30 min. After washing, MFI was measured using CytoFlex by gating live cell population with FITC channel. EC50 of binding was calculated using GraphPad Prism7.0.

mouse TROP2 = biological target: T6, mouse TROP2 (mouse, UniProt Q8BGV3 25-317); assay: flow cytometry whole cell binding, m-TROP2 stably transfected 293T cells
T6 construct: whole, on cells; also called m-TROP2
T6 sequence (looked up): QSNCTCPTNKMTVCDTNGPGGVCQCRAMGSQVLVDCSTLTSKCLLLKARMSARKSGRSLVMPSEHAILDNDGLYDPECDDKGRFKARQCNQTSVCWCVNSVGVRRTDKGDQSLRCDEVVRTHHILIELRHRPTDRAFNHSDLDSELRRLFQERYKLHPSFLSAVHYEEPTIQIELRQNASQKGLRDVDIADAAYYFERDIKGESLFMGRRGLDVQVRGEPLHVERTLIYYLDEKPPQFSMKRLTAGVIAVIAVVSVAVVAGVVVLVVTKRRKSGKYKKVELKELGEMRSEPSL

[13] = biological target: T5, human TROP2 (Trophoblast cell-surface …); assay: cell-based or functional assay
[14] = biological target: T5, human TROP2 (Trophoblast cell-surface …); assay: flow cytometry whole cell binding, SKBR3 cells
[15] = biological target: T5, human TROP2 (Trophoblast cell-surface …); assay: flow cytometry whole cell binding, HCC202 cells
[16] = biological target: T5, human TROP2 (Trophoblast cell-surface …); assay: flow cytometry whole cell binding, NCI-H441 cells

IC50 (nM) in AU-565 cells, anti-proliferation [2]: 0.84 nM | binding result [3]: no binding | binding result [4]: no binding | EC50 [5]: 2.09 nM | EC50 [6]: 3.14 nM
B1: anti-HER2 VHH-Fc clone 11D5 (bivalent VHH-Fc of Example 2) (antibody, V domains shown)
VH: QVQLVESGGGVVQPGRSLRLSCAASGSTFSSLAMHWVRQAPGKERELVAAISYSGGYTYYADSVKGRFTISRDNSKNTLYLQMNSLRAEDTAVYYCAASSIFIGAYDYWGQGTLVTVSS
notes: not shown: human IgG1 Fc region: hinge region and constant domains CH2 and CH3
IC50 (nM) in AU-565 cells, killing in the presence of PBMCs [1]: 0.38 nM | IC50 (nM) in SKBR3 cells, killing in the presence of PBMCs [1]: 0.29 nM

EC50 [11]: 1.76 nM | EC50 [12]: 1.46 nM | EC50 (mouse TROP2): 760 nM
B3: anti-TROP2 VHH-Fc clone Alpaca 3H9 (antibody, human IgG1, V domains shown)
VH: LVQLVESGGGLVQAGGSQRLSCAVSGRAFAYYAMGWFRQAPGKEREFVAAIAGSGDSTYYADSVKGRFTISRDYAKNTNYLQMNSLKPEDTAVYYCAAAGGTFYSGTAVATRSSQYDYWGQGTQVTVSS
notes: domain: hinge region and constant domains (CH2 and CH3); bivalent VHH-Fc, human IgG1 Fc; also called 3H9-Fc

Second part, the binder before the results:

B2: 11D5_Fc (antibody, V domains shown)
VH: B1 VH
notes: monospecific bivalent VHH-Fc with C220S mutation in the hinge region; also called monospecific anti-HER2 (11D5)
IC50, nM, Killing of HCC202 cells by 2nd Ab-MMAE [7]: 0.18 nM | IC50, nM, Killing of SKBR3 cells by 2nd Ab-MMAE [7]: 0.134 nM | EC50 [8]: 2.59 nM | EC50 [9]: 3.25 nM | EC50 [10]: 0.684 nM

B4: 1H11-hv8_Fc (antibody, V domains shown)
VH: EVQLVESGGGLVQPGGSLRLSCAASGGTFSRYIMGWFRQAPGKEREFVSTISGSGGSTYYADSVKGRFTISRDNSKNTLYLQMNSLRAEDTAVYYCASTFYSTTYVAQRDARDYAYWGQGTQVTVSS
notes: monospecific bivalent VHH-Fc with C220S mutation in the hinge region; also called monospecific anti-TROP2 (1H11-hv8)
IC50, nM, Killing of HCC202 cells by 2nd Ab-MMAE [13]: 0.2 nM | IC50, nM, Killing of NCI-H441 cells by 2nd Ab-MMAE [13]: 0.15 nM | IC50, nM, Killing of SKBR3 cells by 2nd Ab-MMAE [13]: 0.48 nM | EC50 [14]: 141 nM | EC50 [15]: 3.5 nM | EC50 [16]: 1.6 nM
